# Test results as given in paper PMC4658561, “A mechanism of glucose tolerance and stimulation of GH1 β-glucosidases” (Scientific Reports, 2015).
# Positions count from the first letter of the chain named.
# What was measured:
# [1] = test system: T1, O=[N+]([O-])c1ccc(O[C@@H]2O[C@H](CO)[C@@H](O)[C@H](O)[C@H]2O)cc1; experiment: purified protein; type: biochemical, uncultured bacterium; conditions: no glucose, 50 mM Na2HPO4-citric acid buffer pH 7.0, optimal conditions
# T1 construct: pET-22b(+) NdeI/XhoI, C-terminal His6 (kept), E. coli BL21(DE3), Ni-NTA purified; GH1, EC 3.2.1.21; residues T228, Q301, F302
# [2] = test system: T2, O=[N+]([O-])c1ccc(O[C@@H]2O[C@H](CO)[C@@H](O)[C@H](O)[C@H]2O)cc1; experiment: purified protein; type: biochemical, uncultured bacterium; conditions: no glucose, 50 mM Na2HPO4-citric acid buffer pH 7.0, optimal conditions
# T2 construct: pET-22b(+) NdeI/XhoI, C-terminal His6 (kept), E. coli BL21(DE3), Ni-NTA purified; GH1, EC 3.2.1.21; residues V227, H228, N301, V302
# Bgl1B [3] = target: T3, Bgl1B (uncultured bacterium, UniProt D0VEC8, H228T); experiment: relative activity on pNPG versus glucose concentration; type: biochemical; conditions: pH […], stimulation at low concentration, transglycosylation acceptor
# T3 construct: pET-22b(+) NdeI/XhoI, C-terminal His6 (kept), E. coli BL21(DE3), Ni-NTA purified; GH1, EC 3.2.1.21; residues V227, H228, N301, V302
# T3 sequence (D0VEC8 1-449 H228T): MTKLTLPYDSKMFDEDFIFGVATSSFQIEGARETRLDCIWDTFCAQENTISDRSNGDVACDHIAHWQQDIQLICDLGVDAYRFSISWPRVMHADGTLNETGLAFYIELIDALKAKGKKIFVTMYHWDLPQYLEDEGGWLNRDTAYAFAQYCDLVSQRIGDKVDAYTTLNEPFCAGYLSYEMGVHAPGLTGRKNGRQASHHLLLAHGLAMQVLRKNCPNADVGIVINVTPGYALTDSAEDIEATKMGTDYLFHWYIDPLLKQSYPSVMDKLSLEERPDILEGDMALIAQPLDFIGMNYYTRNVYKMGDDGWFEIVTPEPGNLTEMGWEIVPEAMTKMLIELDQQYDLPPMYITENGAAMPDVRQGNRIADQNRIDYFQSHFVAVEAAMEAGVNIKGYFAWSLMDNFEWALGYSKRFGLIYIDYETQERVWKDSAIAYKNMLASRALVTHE
# Bgl1A = target: T4, Bgl1A (uncultured bacterium, UniProt D5KX75); experiment: as above; type: biochemical; conditions: pH […], stimulation at low concentration, transglycosylation acceptor
# T4 construct: pET-22b(+) NdeI/XhoI, C-terminal His6 (kept), E. coli BL21(DE3), Ni-NTA purified; GH1, EC 3.2.1.21; residues T228, Q301, F302
# T4 sequence (D5KX75 1-442): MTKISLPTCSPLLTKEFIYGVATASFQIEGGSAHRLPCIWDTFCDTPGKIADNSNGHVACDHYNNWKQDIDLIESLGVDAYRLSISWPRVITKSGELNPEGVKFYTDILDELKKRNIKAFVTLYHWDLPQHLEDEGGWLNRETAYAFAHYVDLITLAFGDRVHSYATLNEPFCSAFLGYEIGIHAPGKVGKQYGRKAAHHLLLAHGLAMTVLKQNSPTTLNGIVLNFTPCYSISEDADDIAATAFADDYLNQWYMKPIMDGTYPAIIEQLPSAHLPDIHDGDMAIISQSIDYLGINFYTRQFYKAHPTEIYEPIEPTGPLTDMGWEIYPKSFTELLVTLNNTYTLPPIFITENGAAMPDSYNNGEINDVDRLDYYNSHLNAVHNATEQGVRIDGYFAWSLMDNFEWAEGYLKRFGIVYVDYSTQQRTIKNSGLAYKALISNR
# Bgl1B [4] = target: T5, Bgl1B (uncultured bacterium, UniProt D0VEC8); experiment: as above; type: biochemical; conditions: pH […], product inhibition, competitive
# T5 construct: pET-22b(+) NdeI/XhoI, C-terminal His6 (kept), E. coli BL21(DE3), Ni-NTA purified; GH1, EC 3.2.1.21; residues V227, H228, N301, V302
# T5 sequence (D0VEC8 1-449): T3 sequence (D0VEC8 1-449 H228T) with T228H
Compound,Km [2] [µM],Vmax [2] [µM/min],kcat/Km [2] [M⁻¹ s⁻¹],other results
Bgl1A (uncultured bacterium),,,,Km [1]: 690 ± 70 µM; Vmax [1]: 2.7 µM/min; kcat/Km [1]: 35500 M⁻¹ s⁻¹
Bgl1B (uncultured bacterium),270 ± 20,12.6,74700,
OC[C@H]1OC(O)[C@H](O)[C@@H](O)[C@@H]1O (stereo partly drawn) [glucose],,,,"relative activity (Bgl1B [3]): only B:H228T exhibited glucose stimulation, essentially distinctive from wild-type Bgl1B; relative activity (Bgl1A): Bgl1A displayed high glucose tolerance, and was stimulated by low concentrations of glucose; relative activity (Bgl1B [4]): the activity of Bgl1B was persistently inhibited by glucose"
Bgl1B (uncultured bacterium; N301Q/V302F),830 ± 70,8.84,2860,
Bgl1B (uncultured bacterium; H228T),360 ± 30,10.1,24200,
